Bridge positions count the residues as written; N and C are the ends. Square brackets hold non-standard residues; d marks the D form. Peptide text beside a SMILES is read from it. * marks the point of attachment. NOTA = O=C(O)CN1CCN(CC(=O)O)CCN(CC(=O)*)CC1; Nle = CCCC[C@H](N)C(=O)O; AEEA = NCCOCCOCC(=O)O
Experiment: in vivo
Parameters: species or system Sprague-Dawley rats
Conditions: rat; for SUV at 2 h / SUV at 1 h / SUV at 5 min / SUV at 10 min / SUV at 0.5 h / SUV at 40 min: Sprague-Dawley, iv, total radioactivity
Procedure: Sixteen male (n = 10; 363.3 ± 19.6 g) and female (n = 6; 199.2 ± 5.5 g) Sprague–Dawley rats were used for ex vivo organ distribution of the [^68Ga]Ga-NO2A-[Nle13]-Col for the subsequent extrapolation and calculation of human dosimetry. The male and female animals were administered into the tail vein with, respectively, 2.3 ± 0.8 MBq and 1.4 ± 0.5 MBq, sacrificed at 5, 10, 30, 40, 60, and 120 min post administration, and the organs were harvested, weighted, and measured for their radioactivity content. Samples from the blood, heart, lung, liver, spleen, adrenal glands, kidneys, intestines with or without contents, muscle, testis, bone, brain, pancreas, urine bladder, and bone marrow were collected. To monitor radioactivity elimination and recovery, the radioactivity of the remaining carcass was also measured. The radioactivity measurements were corrected for decay and converted into standardized uptake values (SUVs, Table S2) according to Equation (2), wherein the radioactivity is expressed in MBq and the weight in grams:(2) SUV=Radioactivityorgan∗weightrat/Radioactivityinjected∗weightorgan

[1] = female, 1.4 MBq, SUV bladder (UB)
[2] = female, 1.4 MBq, SUV blood (BL)
[3] = female, 1.4 MBq, SUV brain (BR)
[4] = female, 1.4 MBq, SUV heart (HE)
[5] = female, 1.4 MBq, SUV liver (LI)
[6] = female, 1.4 MBq, SUV lungs (LU)
[7] = female, 1.4 MBq, SUV muscle (MU)
[8] = female, 1.4 MBq, SUV red bone marrow (BM)
[9] = female, 1.4 MBq, SUV spleen (SP)
[10] = female, SUV large intestine without content (INL-)
[11] = female, SUV small intestine with its content (INS+)
[12] = male, SUV large intestine without content (INL-)
[13] = male, SUV small intestine with its content (INS+)

## CCCC[C@@H]1NC(=O)[C@H](C(C)C)NC(=O)[C@H](CCCNC(=N)N)NC(=O)CNC(=O)[C@@H]2CCCN2C(=O)[C@@H](NC(=O)COCCOCCNC(=O)CN2CCN(CC(=O)O)CCN(CC(=O)O)CC2)CSSC[C@@H](C(=O)O)NC(=O)[C@@H]2CCCN2C(=O)CNC(=O)[C@H](CCC(=O)O)NC(=O)[C@H](CC(=O)O)NC(=O)[C@H](CC(=O)O)NC(=O)CNC(=O)[C@H](CC(C)C)NC(=O)[C@H](Cc2c[nH]cn2)NC(=O)[C@H](CC(C)C)NC(=O)CNC(=O)[C@H](Cc2c[nH]cn2)NC1=O [[^68Ga]Ga-NO2A-[Nle^13]-Col, [^68Ga]Ga-NOTA-PEG2-c[CPGRVNleHGLHLGDDEGPC], metal not drawn] ({NOTA-AEEA}-CPGRV[Nle]HGLHLGDDEGPC-OH; disulfide 1-18)
SUV of adrenal glands, bone marrow and urinary bladder
  SUV at 2 h: < 0.25 SUV
SUV of all vital organs
  SUV at 1 h: < 0.2 SUV
SUV of the remainder of the organs
  SUV at 2 h: < 0.1 SUV
Both sexes, SUV of most of the organs
  SUV at 2 h: < 0.25 SUV
[1]
  SUV at 5 min: 4.88 SUV
  SUV at 10 min: 6.96 SUV
  SUV at 0.5 h: 5.83 SUV
  SUV at 40 min: 0.843 SUV
  SUV at 1 h: 1.08 SUV
  SUV at 2 h: 0.321 SUV
[2]
  SUV at 10 min: 1.42 SUV
  SUV at 0.5 h: 0.497 SUV
  SUV at 40 min: 0.432 SUV
  SUV at 1 h: 0.217 SUV
  SUV at 2 h: 0.0412 SUV
female, 1.4 MBq, SUV bone (BO)
  SUV at 5 min: 0.391 SUV
  SUV at 10 min: 0.403 SUV
  SUV at 0.5 h: 0.179 SUV
  SUV at 40 min: 0.106 SUV
  SUV at 1 h: 0.064 SUV
  SUV at 2 h: 0.031 SUV
[3]
  SUV at 5 min: 0.073 SUV
  SUV at 10 min: 0.0964 SUV
  SUV at 0.5 h: 0.0189 SUV
  SUV at 40 min: 0.0174 SUV
  SUV at 1 h: 0.0149 SUV
  SUV at 2 h: 0.0062 SUV
[4]
  SUV at 5 min: 0.741 SUV
  SUV at 10 min: 0.68 SUV
  SUV at 0.5 h: 0.207 SUV
  SUV at 40 min: 0.18 SUV
  SUV at 1 h: 0.104 SUV
  SUV at 2 h: 0.026 SUV
[5]
  SUV at 5 min: 0.438 SUV
  SUV at 10 min: 0.452 SUV
  SUV at 0.5 h: 0.171 SUV
  SUV at 40 min: 0.147 SUV
  SUV at 1 h: 0.114 SUV
  SUV at 2 h: 0.0889 SUV
[6]
  SUV at 5 min: 1.12 SUV
  SUV at 10 min: 0.986 SUV
  SUV at 0.5 h: 0.385 SUV
  SUV at 40 min: 0.427 SUV
  SUV at 1 h: 0.276 SUV
  SUV at 2 h: 0.0631 SUV
[7]
  SUV at 5 min: 0.514 SUV
  SUV at 10 min: 0.295 SUV
  SUV at 0.5 h: 0.214 SUV
  SUV at 40 min: 0.0802 SUV
  SUV at 1 h: 0.0488 SUV
  SUV at 2 h: 0.0213 SUV
female, 1.4 MBq, SUV ovarian (OV)
  SUV at 2 h: 0.124 SUV
[8]
  SUV at 5 min: 0.484 SUV
  SUV at 10 min: 0.443 SUV
  SUV at 0.5 h: 0.162 SUV
  SUV at 40 min: 0.769 SUV
  SUV at 1 h: 0.113 SUV
  SUV at 2 h: 0.343 SUV
[9]
  SUV at 5 min: 0.423 SUV
  SUV at 10 min: 0.354 SUV
  SUV at 0.5 h: 0.174 SUV
  SUV at 40 min: 0.135 SUV
  SUV at 1 h: 0.0938 SUV
female, SUV adrenals (AD)
  SUV at 5 min: 0.724 SUV
  SUV at 10 min: 1.29 SUV
  SUV at 0.5 h: 0.0127 SUV
  SUV at 40 min: 0.25 SUV
  SUV at 1 h: 0.198 SUV
  SUV at 2 h: 0.128 SUV
female, SUV blood (BL)
  SUV at 5 min: 2.06 SUV
female, SUV kidneys (KI)
  SUV at 5 min: 12.1 SUV
  SUV at 10 min: 11.3 SUV
  SUV at 0.5 h: 6.32 SUV
  SUV at 40 min: 12.9 SUV
  SUV at 1 h: 12.8 SUV
  SUV at 2 h: 9.08 SUV
[10]
  SUV at 5 min: 0.569 SUV
  SUV at 10 min: 0.91 SUV
  SUV at 0.5 h: 0.193 SUV
  SUV at 40 min: 0.211 SUV
  SUV at 1 h: 0.103 SUV
  SUV at 2 h: 0.046 SUV
female, SUV ovarian (OV)
  SUV at 5 min: 0.927 SUV
  SUV at 10 min: 1.87 SUV
  SUV at 0.5 h: 0.341 SUV
  SUV at 40 min: 0.335 SUV
  SUV at 1 h: 0.159 SUV
female, SUV pancreas (PA)
  SUV at 5 min: 0.439 SUV
  SUV at 10 min: 0.361 SUV
  SUV at 0.5 h: 0.164 SUV
  SUV at 40 min: 0.0609 SUV
  SUV at 1 h: 0.0659 SUV
  SUV at 2 h: 0.029 SUV
[11]
  SUV at 5 min: 0.436 SUV
  SUV at 10 min: 0.558 SUV
  SUV at 0.5 h: 0.277 SUV
  SUV at 40 min: 0.165 SUV
  SUV at 1 h: 0.129 SUV
  SUV at 2 h: 0.0343 SUV
female, SUV spleen (SP)
  SUV at 2 h: 0.066 SUV
male, 2.3 MBq, SUV blood (BL)
  SUV at 5 min: 2.22 SUV
  SUV at 10 min: 1.53 SUV
male, 2.3 MBq, SUV heart (HE)
  SUV at 40 min: 0.225 SUV
  SUV at 1 h: 0.123 SUV
  SUV at 2 h: 0.024 SUV
male, 2.3 MBq, SUV liver (LI)
  SUV at 5 min: 0.478 SUV
  SUV at 10 min: 0.308 SUV
  SUV at 0.5 h: 0.193 SUV
  SUV at 40 min: 0.198 SUV
  SUV at 1 h: 0.112 SUV
  SUV at 2 h: 0.0624 SUV
male, 2.3 MBq, SUV lungs (LU)
  SUV at 1 h: 0.217 SUV
  SUV at 2 h: 0.0955 SUV
male, SUV TE (testis)
  SUV at 5 min: 0.354 SUV
  SUV at 10 min: 0.318 SUV
  SUV at 0.5 h: 0.216 SUV
  SUV at 40 min: 0.245 SUV
  SUV at 1 h: 0.118 SUV
  SUV at 2 h: 0.0322 SUV
male, SUV adrenals (AD)
  SUV at 5 min: 0.82 SUV
  SUV at 10 min: 0.549 SUV
  SUV at 0.5 h: 0.464 SUV
  SUV at 40 min: 0.284 SUV
  SUV at 1 h: 0.494 SUV
  SUV at 2 h: 0.249 SUV
male, SUV bladder (UB)
  SUV at 5 min: 2.51 SUV
  SUV at 10 min: 3.13 SUV
  SUV at 0.5 h: 5.01 SUV
  SUV at 40 min: 2.8 SUV
  SUV at 1 h: 3.73 SUV
  SUV at 2 h: 0.896 SUV
male, SUV blood (BL)
  SUV at 0.5 h: 0.8 SUV
  SUV at 40 min: 0.624 SUV
  SUV at 1 h: 0.316 SUV
  SUV at 2 h: 0.052 SUV
male, SUV bone (BO)
  SUV at 5 min: 0.12 SUV
  SUV at 10 min: 0.243 SUV
  SUV at 0.5 h: 0.143 SUV
  SUV at 40 min: 0.127 SUV
  SUV at 1 h: 0.2 SUV
  SUV at 2 h: 0.0384 SUV
male, SUV brain (BR)
  SUV at 5 min: 0.0955 SUV
  SUV at 10 min: 0.0507 SUV
  SUV at 0.5 h: 0.0346 SUV
  SUV at 40 min: 0.0272 SUV
  SUV at 1 h: 0.0268 SUV
  SUV at 2 h: 0.0058 SUV
male, SUV heart (HE)
  SUV at 5 min: 0.97 SUV
  SUV at 10 min: 0.605 SUV
  SUV at 0.5 h: 0.338 SUV
male, SUV kidneys (KI)
  SUV at 5 min: 19.2 SUV
  SUV at 10 min: 14.2 SUV
  SUV at 0.5 h: 13.6 SUV
  SUV at 40 min: 13.1 SUV
  SUV at 1 h: 8.67 SUV
  SUV at 2 h: 11.5 SUV
[12]
  SUV at 5 min: 1.01 SUV
  SUV at 10 min: 0.919 SUV
  SUV at 0.5 h: 0.476 SUV
  SUV at 40 min: 0.289 SUV
  SUV at 1 h: 0.243 SUV
  SUV at 2 h: 0.0668 SUV
male, SUV lungs (LU)
  SUV at 5 min: 1.28 SUV
  SUV at 10 min: 1 SUV
  SUV at 0.5 h: 0.566 SUV
  SUV at 40 min: 0.563 SUV
male, SUV muscle (MU)
  SUV at 5 min: 0.401 SUV
  SUV at 10 min: 0.507 SUV
  SUV at 0.5 h: 0.116 SUV
  SUV at 40 min: 0.104 SUV
  SUV at 1 h: 0.106 SUV
  SUV at 2 h: 0.0164 SUV
male, SUV pancreas (PA)
  SUV at 5 min: 0.472 SUV
  SUV at 10 min: 0.419 SUV
  SUV at 0.5 h: 0.261 SUV
  SUV at 40 min: 0.2 SUV
  SUV at 1 h: 0.111 SUV
  SUV at 2 h: 0.0272 SUV
male, SUV red bone marrow (BM)
  SUV at 5 min: 0.584 SUV
  SUV at 10 min: 0.543 SUV
  SUV at 0.5 h: 0.262 SUV
  SUV at 40 min: 1.01 SUV
  SUV at 1 h: 1.15 SUV
  SUV at 2 h: 0.154 SUV
[13]
  SUV at 5 min: 0.731 SUV
  SUV at 10 min: 0.5 SUV
  SUV at 0.5 h: 0.256 SUV
  SUV at 40 min: 0.412 SUV
  SUV at 1 h: 0.132 SUV
  SUV at 2 h: 0.0313 SUV
male, SUV spleen (SP)
  SUV at 5 min: 0.541 SUV
  SUV at 10 min: 0.376 SUV
  SUV at 0.5 h: 0.241 SUV
  SUV at 40 min: 0.205 SUV
  SUV at 1 h: 0.126 SUV
  SUV at 2 h: 0.0652 SUV
  decrease of kidney SUV: 40-50%
  highest SUV (kidneys): around 12 SUV
